Earlier results in US20050164248A1, “Compositions isolated from bovine tissues and methods for their use” (priority 1999, published 2005).

System: Candida albicans
Conditions: general statement, no value

B1: Lactoferrin (protein, UniProt P02788 20-710, looked up)
Lactotransferrin: GRRRSVQWCAVSQPEATKCFQWQRNMRKVRGPPVSCIKRDSPIQCIQAIAENRADAVTLDGGFIYEAGLAPYKLRPVAAEVYGTERQPRTHYYAVAVVKKGGSFQLNELQGLKSCHTGLRRTAGWNVPIGTLRPFLNWTGPPEPIEAAVARFFSASCVPGADKGQFPNLCRLCAGTGENKCAFSSQEPYFSYSGAFKCLRDGAGDVAFIRESTVFEDLSDEAERDEYELLCPDNTRKPVDKFKDCHLARVPSHAVVARSVNGKEDAIWNLLRQAQEKFGKDKSPKFQLFGSPSGQKDLLFKDSAIGFSRVPPRIDSGLYLGSGYFTAIQNLRKSEEEVAARRARVVWCAVGEQELRKCNQWSGLSEGSVTCSSASTTEDCIALVLKGEADAMSLDGGYVYTAGKCGLVPVLAENYKSQQSSDPDPNCVDRPVEGYLAVAVVRRSDTSLTWNSVKGKKSCHTAVDRTAGWNIPMGLLFNQTGSCKFDEYFSQSCAPGSDPRSNLCALCIGDEQGENKCVPNSNERYYGYTGAFRCLAENAGDVAFVKDVTVLQNTDGNNNEAWAKDLKLADFALLCLDGKRKPVTEARSCHLAMAPNHAVVSRMDKVERLKQVLLHQQAKFGRNGSDCPDKFCLFQSETKNLLFNDNTECLARLHGKTTYEKYLGPQYVAGITNLKKCSTSPLLEACEFLRK
In the case of B1, the “inhibitory activity against Candida (statement on control peptide)” value is given as “extremely inhibitory”.
